The supplement of paper PMC7877785
± gives the uncertainty stated by the source.

Assay: self-splicing fitness, log relative to wild type (ln ratio); higher = more splicing; Tetrahymena group I intron in knt gene, E. coli kanamycin selection, DiMSum; sequences stand for … in CUCUCU…GGAGGGAAAAGUUAUCAGGCAUGCACCUGGUAGCUAGUCUUUAAACCAAUAGAUUGCAUCGGUUUAAAAGGCAAGACCGUCAAAUUGCGGGAAAGGGGUCAACAGCCGUUCAGUACCAAGUCUCAGGGGAAACUUUGAGAUGGCCUUGCAAAGGGUAUGGUAAUAAGCUGACGGACAUGGUCCUAACCACGCAGCCAAGUCCUAAGUCAACAGAUCUUCUGUUGAUAUGGAUGCAGUUCACAGACUAAAUGUCGGUCGGGGAAGAUGUAUUCUUCUCAUAAGAUAUAGUCGGACCUCUCCUUAAUGGGAGCUAGCGGAUGAAGUGAUGCAACACUGGAGCCGCUGGGAACUAAUUUGUAUGCGAAAGUAUAUUGAUUAGUUUUGGAGUACUCGUGGUCG
Procedure, shortened: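 Fitness was computed with DiMSum as the error-weighted combination of replicate fold changes, kanamycin versus none, each normalised to wild type. The library randomised all eight intron nucleotides of the P1ex region, with the intron placed in the knt kanamycin-resistance gene on pET-22b(+) in E. coli BL21(DE3). Six replicate transformations were grown overnight at 37°C or 30°C on LB agar with or without 25 μg/mL kanamycin, plus 100 μg/mL carbenicillin, 50 μM IPTG and 0.2% rhamnose. Pooled colonies were amplicon-sequenced on an Illumina HiSeq 2500.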

In the case of CUGCAGCAAUAUUACGUAUU, the “self-splicing fitness (ln)” value (30 °C) is reported as -4.27 ± 0.18 and the “self-splicing fitness (ln)” value (37 °C) is reported as -3.51 ± 0.19.

In the case of CUGCAGCAAUAUUACGUCUC, the “self-splicing fitness (ln)” value (37 °C) is reported as -2.12 ± 0.26.

With CUGCAGCAAUAUUACGUGAG the “self-splicing fitness (ln)” value (30 °C) was -0.703 ± 0.067 and the “self-splicing fitness (ln)” value (37 °C) was 0.216 ± 0.093.

With CUGGAGCAAUAUUACGAGAG the “self-splicing fitness (ln)” value (30 °C) was -3.54 ± 0.36 and the “self-splicing fitness (ln)” value (37 °C) was -3.53 ± 0.33.

With CUGGAGCAAUAUUACGAGUG the “self-splicing fitness (ln)” value (30 °C) was -1.26 ± 0.087 and the “self-splicing fitness (ln)” value (37 °C) was -0.568 ± 0.12.

With CUGGAGCAAUAUUACGAUGA the “self-splicing fitness (ln)” value (30 °C) was -3.18 ± 0.4 and the “self-splicing fitness (ln)” value (37 °C) was -1.87 ± 0.24.

With CUGGAGCAAUAUUACGCGGC the “self-splicing fitness (ln)” value (30 °C) was -1.27 ± 0.14 and the “self-splicing fitness (ln)” value (37 °C) was 0.0532 ± 0.14.

With CUGGAGCAAUAUUACGCUCG the “self-splicing fitness (ln)” value (30 °C) was -1.13 ± 0.18.

With CUGGAGCAAUAUUACGCUUA the “self-splicing fitness (ln)” value (30 °C) was -2.59 ± 0.45 and the “self-splicing fitness (ln)” value (37 °C) was -2.32 ± 0.35.

With CUGGAGCAAUAUUACGGAAG the “self-splicing fitness (ln)” value (30 °C) was -3.48 ± 0.41 and the “self-splicing fitness (ln)” value (37 °C) was -1.45 ± 0.28.

For CUGGAGCAAUAUUACGUACA, the “self-splicing fitness (ln)” value (37 °C) was -1.28 ± 0.48.

With CUGGAGCAAUAUUACGUAGC the “self-splicing fitness (ln)” value (37 °C) was -2.38 ± 0.32.

For CUGGAGCAAUAUUACGUCAG, the “self-splicing fitness (ln)” value (30 °C) was -4.05 ± 0.46 and the “self-splicing fitness (ln)” value (37 °C) was -2.59 ± 0.29.

With CUGGAGCAAUAUUACGUCCG the “self-splicing fitness (ln)” value (30 °C) was -2.17 ± 0.16 and the “self-splicing fitness (ln)” value (37 °C) was -0.559 ± 0.15.

In the case of CUGGAGCAAUAUUACGUCGU, the “self-splicing fitness (ln)” value (30 °C) is reported as -3.88 ± 0.23 and the “self-splicing fitness (ln)” value (37 °C) is reported as -2.39 ± 0.22.

In the case of CUGGAGCAAUAUUACGUCUU, the “self-splicing fitness (ln)” value (30 °C) is reported as -3.27 ± 0.39.

For CUGGAGCAAUAUUACGUGCG, the “self-splicing fitness (ln)” value (30 °C) was -1.44 ± 0.092 and the “self-splicing fitness (ln)” value (37 °C) was -1.19 ± 0.12.

In the case of CUGGAGCAAUAUUACGUGGC, the “self-splicing fitness (ln)” value (30 °C) is reported as -2.22 ± 0.21 and the “self-splicing fitness (ln)” value (37 °C) is reported as -2.13 ± 0.25.

For CUGGAGCAAUAUUACGUUUG, the “self-splicing fitness (ln)” value (30 °C) was -2.66 ± 0.17 and the “self-splicing fitness (ln)” value (37 °C) was -1.21 ± 0.17.

In the case of CUGUAGCAAUAUUACGAACC, the “self-splicing fitness (ln)” value (30 °C) is reported as -2.02 ± 0.47.

In the case of CUGUAGCAAUAUUACGAAUC, the “self-splicing fitness (ln)” value (30 °C) is reported as -3.03 ± 0.35.

For CUGUAGCAAUAUUACGACAC, the “self-splicing fitness (ln)” value (37 °C) was -2.65 ± 0.44.

In the case of CUGUAGCAAUAUUACGAGAU, the “self-splicing fitness (ln)” value (30 °C) is reported as -3.86 ± 0.16 and the “self-splicing fitness (ln)” value (37 °C) is reported as -2.21 ± 0.15.

In the case of CUGUAGCAAUAUUACGAGCG, the “self-splicing fitness (ln)” value (30 °C) is reported as -0.681 ± 0.094 and the “self-splicing fitness (ln)” value (37 °C) is reported as 0.0625 ± 0.12.

In the case of CUGUAGCAAUAUUACGAUCA, the “self-splicing fitness (ln)” value (30 °C) is reported as -2.29 ± 0.25 and the “self-splicing fitness (ln)” value (37 °C) is reported as -1.96 ± 0.42.

For CUGUAGCAAUAUUACGAUGA, the “self-splicing fitness (ln)” value (30 °C) was -1.86 ± 0.16 and the “self-splicing fitness (ln)” value (37 °C) was -1.83 ± 0.16.

With CUGUAGCAAUAUUACGCAAG the “self-splicing fitness (ln)” value (30 °C) was -2.47 ± 0.12 and the “self-splicing fitness (ln)” value (37 °C) was -1.56 ± 0.11.

For CUGUAGCAAUAUUACGCGAU, the “self-splicing fitness (ln)” value (30 °C) was -4.41 ± 0.32 and the “self-splicing fitness (ln)” value (37 °C) was -2.87 ± 0.28.

With CUGUAGCAAUAUUACGGACU the “self-splicing fitness (ln)” value (30 °C) was -3.43 ± 0.3 and the “self-splicing fitness (ln)” value (37 °C) was -1.83 ± 0.24.

In the case of CUGUAGCAAUAUUACGGCAA, the “self-splicing fitness (ln)” value (30 °C) is reported as -3.11 ± 0.39.

For CUGUAGCAAUAUUACGGCCG, the “self-splicing fitness (ln)” value (30 °C) was -0.368 ± 0.13 and the “self-splicing fitness (ln)” value (37 °C) was 0.257 ± 0.16.

With CUGUAGCAAUAUUACGGGCG the “self-splicing fitness (ln)” value (30 °C) was -1.86 ± 0.09 and the “self-splicing fitness (ln)” value (37 °C) was -0.334 ± 0.11.

With CUGUAGCAAUAUUACGGGCU the “self-splicing fitness (ln)” value (30 °C) was -4.31 ± 0.3 and the “self-splicing fitness (ln)” value (37 °C) was -3.2 ± 0.29.

In the case of CUGUAGCAAUAUUACGGGGU, the “self-splicing fitness (ln)” value (30 °C) is reported as -2.96 ± 0.34 and the “self-splicing fitness (ln)” value (37 °C) is reported as -2.82 ± 0.36.

For CUGUAGCAAUAUUACGGGUC, the “self-splicing fitness (ln)” value (30 °C) was -4.47 ± 0.34 and the “self-splicing fitness (ln)” value (37 °C) was -2.65 ± 0.26.

With CUGUAGCAAUAUUACGGUGC the “self-splicing fitness (ln)” value (30 °C) was -3.58 ± 0.2 and the “self-splicing fitness (ln)” value (37 °C) was -2.77 ± 0.19.

For CUGUAGCAAUAUUACGUCUU, the “self-splicing fitness (ln)” value (30 °C) was -4.7 ± 0.26 and the “self-splicing fitness (ln)” value (37 °C) was -2.67 ± 0.3.

In the case of CUGUAGCAAUAUUACGUGCU, the “self-splicing fitness (ln)” value (30 °C) is reported as -2.94 ± 0.24 and the “self-splicing fitness (ln)” value (37 °C) is reported as -2.39 ± 0.33.

In the case of CUGUAGCAAUAUUACGUUGU, the “self-splicing fitness (ln)” value (30 °C) is reported as -3.59 ± 0.25 and the “self-splicing fitness (ln)” value (37 °C) is reported as -4.02 ± 0.33.

In the case of CUUAAGCAAUAUUACGAAGA, the “self-splicing fitness (ln)” value (30 °C) is reported as -2.98 ± 0.24 and the “self-splicing fitness (ln)” value (37 °C) is reported as -1.45 ± 0.26.

In the case of CUUAAGCAAUAUUACGAAGU, the “self-splicing fitness (ln)” value (30 °C) is reported as -2.9 ± 0.13 and the “self-splicing fitness (ln)” value (37 °C) is reported as -2.19 ± 0.18.

For CUUAAGCAAUAUUACGACGC, the “self-splicing fitness (ln)” value (30 °C) was -3.04 ± 0.28 and the “self-splicing fitness (ln)” value (37 °C) was -2.22 ± 0.4.

With CUUAAGCAAUAUUACGACUU the “self-splicing fitness (ln)” value (30 °C) was -4.36 ± 0.32 and the “self-splicing fitness (ln)” value (37 °C) was -1.74 ± 0.21.

With CUUAAGCAAUAUUACGAGUG the “self-splicing fitness (ln)” value (30 °C) was -1.39 ± 0.068 and the “self-splicing fitness (ln)” value (37 °C) was -0.428 ± 0.1.

With CUUAAGCAAUAUUACGAUGA the “self-splicing fitness (ln)” value (30 °C) was -3.04 ± 0.43 and the “self-splicing fitness (ln)” value (37 °C) was -0.126 ± 0.22.

In the case of CUUAAGCAAUAUUACGAUUU, the “self-splicing fitness (ln)” value (30 °C) is reported as -4.53 ± 0.42 and the “self-splicing fitness (ln)” value (37 °C) is reported as -2.7 ± 0.24.

With CUUAAGCAAUAUUACGCACA the “self-splicing fitness (ln)” value (30 °C) was -2.43 ± 0.35 and the “self-splicing fitness (ln)” value (37 °C) was -1.87 ± 0.4.

With CUUAAGCAAUAUUACGCACG the “self-splicing fitness (ln)” value (30 °C) was -1.62 ± 0.14 and the “self-splicing fitness (ln)” value (37 °C) was -0.394 ± 0.16.

In the case of CUUAAGCAAUAUUACGCACU, the “self-splicing fitness (ln)” value (30 °C) is reported as -2.93 ± 0.17 and the “self-splicing fitness (ln)” value (37 °C) is reported as -1.53 ± 0.17.

With CUUAAGCAAUAUUACGCCAG the “self-splicing fitness (ln)” value (30 °C) was -2.49 ± 0.22 and the “self-splicing fitness (ln)” value (37 °C) was -2.06 ± 0.33.
